{
  "source": "patent US20250213666A1",
  "biological_target": "Spike protein on SARS-CoV-2 pseudovirus expressing luciferase (COVID-19 Pseudovirus Neutralizing Antibody Assay, Abnova) (SARS-CoV-2) (UniProt P0DTC2)",
  "test": "cell-based or functional assay",
  "data": [
    {"substance": "Intimin-Ty1 nanobody (pIntimin-Ty1), surface displayed on E. coli Nissle 1917 or on its OMVs (VHH)", "values": [
      {"measurement": "Pseudovirus-ACE2 receptor inhibition, OMVs at 22 µg/mL", "value": "30 to 32", "unit": "%"}
    ]}
  ]
}
